Data from PMC5890176.

Assays:
[1] = biological target: HU of Streptococcus pneumoniae (SpnHU) (Streptococcus pneumoniae R6); test: cross-linking; 0.1% glutaraldehyde, room temperature, 30 min, 5 mM Tris-HCl pH 8.0, 25 mM KCl, 25% glycerol, 0.25 mM EDTA, 0.25 mM DTT; SDS-PAGE (15%), Coomassie; all tested concentrations
[2] = test system: SpnHU (HU, histone-like protein) (Streptococcus pneumoniae R6); test: EMSA (agarose); conditions: 2 nM DNA, 10 mM Tris-HCl pH 8.0, 50 mM KCl, 0.05% Brij 58, 0.01 mg/ml BSA, 5% glycerol, 0.01 mM EDTA, 0.01 mM DTT, room temperature 20 min, 0.5% agarose in TBE

Substance: HU of Streptococcus pneumoniae (SpnHU) (natural protein)
- stoichiometry N [1]: 2

Substance: pBR322 linear (PstI)
- binding signal ([2]; SpnHU concentration required for shift (8-fold more than supercoiled)): 1.6 µM

Substance: pBR322 nicked (Nt.BstNBI)
- binding signal ([2]; SpnHU concentration required for shift (16-fold more than supercoiled), nicked with Nt.BstNBI): 3.2 µM

Substance: pBR322 supercoiled
- binding signal ([2]; SpnHU concentration at which shift seen): 0.2 µM
